{"source": "the supplement of paper PMC6755084", "parents": {"B1": {"name": "F1*; the commonest letter at each place (parent)", "chain": "GAGACCGCAACTGAAAAGTTGTTATCACTTGTCGTAAGACACTTTGGATGGGTTGAAGTTCTGCACGTAGAAGCAAAAGGC"}}}
{"variants_of": "B1", "experiment": "fraction ligated after 30 min (ligated reads / total reads); higher = more ligase activity", "details": "with F1*sub RNA substrate (template-directed ligation), 42 °C", "description": "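Chip-synthesised pool of F1* ligase ribozyme variants (all single and double substitutions, single, double and triple deletions in the catalytic core and GAA bulge, plus designed variants) was transcribed with T7 and reacted as a pool with excess substrate F1*sub for 30 min at 42 C in 50 mM EPPS pH 8.5, 25 mM MgCl2. Ligated and unligated bands were separated by PAGE, barcoded by RT and deep sequenced; fraction ligated = ligated reads / total reads per variant, relative activity = FL / FL of wild type (0.826). Sequences are the DNA template of the ribozyme.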"}
{"variant": "GAGACCGCAACTGAAAAGTTGTGTTCACTTGTCGTAAGACACTTTGGATGGGTTGAAGTTCTGCACGTAGAAGCAAAAGGC", "fraction ligated": 0.794}
{"variant": "GAGACCGCAACTGAAAAGTTGTTATCACTTGTCGTAAGACAATTTGGCTGGGTTGAAGTTCTGCACGTAGAAGCAAAAGGC", "fraction ligated": 0.761}
{"variant": "GAGACCGCAACTGAAAAGTTGTTATTACTTGTCGTAAGACACGTTGGATGGGTTGAAGTTCTGCACGTAGAAGCAAAAGGC", "fraction ligated": 0.79}
{"variant": "GAGACCGCAACTGAAAAGTTGTTATCAGTTCTCGTAAGACACTTTGGATGGGTTGAAGTTCTGCACGTAGAAGCAAAAGGC", "fraction ligated": 0.81}
{"variant": "GAGACCGCAACTGAAAAGTTGTTATCACTTATCGTAAGACACTTTGTATGGGTTGAAGTTCTGCACGTAGAAGCAAAAGGC", "fraction ligated": 0.0708}
{"variant": "GAGACCGCAACTGAAAAGTTGTTATCACTGATCGTAAGACACTTTGGATGGGTTGAAGTTCTGCACGTAGAAGCAAAAGGC", "fraction ligated": 0.853}
{"variant": "GAGACCGCAACTGAAAAGTTGTTATTACTTGTCGTAAGACACTTTGGATGGGTTGGAGTTCTGCACGTAGAAGCAAAAGGC", "fraction ligated": 0.768}
{"variant": "GAGACCGCAACTGAAAAGTTGTTATCACTTGTCGTAAGACACTTTAGACGGGTTGAAGTTCTGCACGTAGAAGCAAAAGGC", "fraction ligated": 0.38}
{"variant": "GAGACCGCAACTGAAAAGTTGTTATCACATGTCGTAAGACACTTCGGATGGGTTGAAGTTCTGCACGTAGAAGCAAAAGGC", "fraction ligated": 0.651}
{"variant": "GAGACCGCAACTGAAAAGTTGTTATCACCTGTCGTAATACACTTTGGATGGGTTGAAGTTCTGCACGTAGAAGCAAAAGGC", "fraction ligated": 0.816}
{"variant": "GAGACCGCAACTGAAAAGTTGTTATCACTTGTCGTAACACAGTTTGGATGGGTTGAAGTTCTGCACGTAGAAGCAAAAGGC", "fraction ligated": 0.843}
{"variant": "GAGACCGCAACTGAAAAGTTGTTATCACTTGTCGTAAGACACTTTGGATGGTTTGAAGTTCTGCACGTAGAAGCAAAAGGC", "fraction ligated": 0.695}
{"variant": "GAGACCGCAACTGAAAAGTTGTTATCAGTTGTCGTATGACACTTTGGATGGGTTGAAGTTCTGCACGTAGAAGCAAAAGGC", "fraction ligated": 0.808}
{"variant": "GAGACCGCAACTGAAAAGTTGTTATCACTTGTCGTAACACACTGTGGATGGGTTGAAGTTCTGCACGTAGAAGCAAAAGGC", "fraction ligated": 0.839}
{"variant": "GAGACCGCAACTGAAAAGTTGTTATCACTTGTCGTAAGACACTATGGATGGGTTGCAGTTCTGCACGTAGAAGCAAAAGGC", "fraction ligated": 0.797}
{"variant": "GAGACCGCAACTGAAAAGTTGTTATTACTTGACGTAAGACACTTTGGATGGGTTGAAGTTCTGCACGTAGAAGCAAAAGGC", "fraction ligated": 0.701}
{"variant": "GAGACCGCAACTGAAAAGTTGTTATCACTTGTCGTAAGACATTTTGGATGGGTTAAAGTTCTGCACGTAGAAGCAAAAGGC", "fraction ligated": 0.844}
{"variant": "GAGACCGCAACTGAAAAGTTGTCATCACTTGTCGTAAGACACTTTGGATAGGTTGAAGTTCTGCACGTAGAAGCAAAAGGC", "fraction ligated": 0.632}
{"variant": "GAGACCGCAACTGAAAAGTTGTTATCACTTGTCCTAAGACACTTTGGATGGGTTGAGGTTCTGCACGTAGAAGCAAAAGGC", "fraction ligated": 0.854}
{"variant": "GAGACCGCAACTGAAAAGTTGTTATCACATGTCGTAAGAGACTTTGGATGGGTTGAAGTTCTGCACGTAGAAGCAAAAGGC", "fraction ligated": 0.854}
{"variant": "GAGACCGCAACTGAAAAGTTGTTATCACTTGTCGTAAGACACTTTCGATGGGTTGAGGTTCTGCACGTAGAAGCAAAAGGC", "fraction ligated": 0.712}
{"variant": "GAGACCGCAACTGAAAAGTTGTTATCACTTGTCGTAAGATCCTTTGGATGGGTTGAAGTTCTGCACGTAGAAGCAAAAGGC", "fraction ligated": 0.78}
{"variant": "GAGACCGCAACTGAAAAGTTGTTAACACTTGTCGTAAGAAACTTTGGATGGGTTGAAGTTCTGCACGTAGAAGCAAAAGGC", "fraction ligated": 0.134}
{"variant": "GAGACCGCAACTGAAAAGTTGTAATCACTTGTCGTAAGACACTTTGTATGGGTTGAAGTTCTGCACGTAGAAGCAAAAGGC", "fraction ligated": 0.09}
{"variant": "GAGACCGCAACTGAAAAGTTGTTCTCACTTGTCGTAAGACACTTTAGATGGGTTGAAGTTCTGCACGTAGAAGCAAAAGGC", "fraction ligated": 0.335}
{"variant": "GAGACCGCAACTGAAAAGTTGTTATCACTTGACGTAAGACACTTTGGAAGGGTTGAAGTTCTGCACGTAGAAGCAAAAGGC", "fraction ligated": 0.568}
{"variant": "GAGACCGCAACTGAAAAGTTGTTATCACTTGTCGTACCACACTTTGGATGGGTTGAAGTTCTGCACGTAGAAGCAAAAGGC", "fraction ligated": 0.818}
{"variant": "GAGACCGCAACTGAAAAGTTGTTATCAATTGTCGTAAGACACTTTAGATGGGTTGAAGTTCTGCACGTAGAAGCAAAAGGC", "fraction ligated": 0.829}
{"variant": "GAGACCGCAACTGAAAAGTTGTTATCACTTGGCGTAAGACAGTTTGGATGGGTTGAAGTTCTGCACGTAGAAGCAAAAGGC", "fraction ligated": 0.837}
{"variant": "GAGACCGCAACTGAAAAGTTGTTATCACTTGTCGTAAAACACTTTGGAGGGGTTGAAGTTCTGCACGTAGAAGCAAAAGGC", "fraction ligated": 0.785}
{"variant": "GAGACCGCAACTGAAAAGTTGTTATCACTTGTCGTAAGACACTTTGGATCGGTTGAGGTTCTGCACGTAGAAGCAAAAGGC", "fraction ligated": 0.104}
{"variant": "GAGACCGCAACTGAAAAGTTGTTATCACTTGTCGTAAGACACTTTGGATCGGTTGACGTTCTGCACGTAGAAGCAAAAGGC", "fraction ligated": 0.033}
{"variant": "GAGACCGCAACTGAAAAGTTGTTATCACTTGTCGTAAGACACTATGGATGGGTTGACGTTCTGCACGTAGAAGCAAAAGGC", "fraction ligated": 0.796}
{"variant": "GAGACCGCAACTGAAAAGTTGTTATCACTAGTCGTAAGACACTTTGGATGGGTTGTAGTTCTGCACGTAGAAGCAAAAGGC", "fraction ligated": 0.81}
